As usually defined, the EC50 is the midpoint of the concentration-response curve. Read a low EC50 as a more potent agent. A word on the Kd: it is the constant that tells how readily two partners part at equilibrium. A low value points to higher affinity.

In one experiment the target is WT (2B). The experiment in a line: ELISA. On the technique in general: An ELISA detects its analyte on a solid surface through an enzyme-linked reagent.
In a further experiment the target is WT (1A). Kind of experiment: ELISA.
In another experiment the target is WT (1B). The experiment in a line: ELISA.
In a further experiment the target is WT (2A). Kind of experiment: ELISA.
In another experiment the target is WT (3). The experiment in a line: ELISA.
In experiment [1] the target is T1, MAD1 JCV VLPs (virus-like particles of JCV capsid protein VP1, MAD1 strain) (JC virus (JCV), MAD1, UniProt P03089 1-354). The experiment in a line: ELISA.
T1 sequence (P03089 whole entry): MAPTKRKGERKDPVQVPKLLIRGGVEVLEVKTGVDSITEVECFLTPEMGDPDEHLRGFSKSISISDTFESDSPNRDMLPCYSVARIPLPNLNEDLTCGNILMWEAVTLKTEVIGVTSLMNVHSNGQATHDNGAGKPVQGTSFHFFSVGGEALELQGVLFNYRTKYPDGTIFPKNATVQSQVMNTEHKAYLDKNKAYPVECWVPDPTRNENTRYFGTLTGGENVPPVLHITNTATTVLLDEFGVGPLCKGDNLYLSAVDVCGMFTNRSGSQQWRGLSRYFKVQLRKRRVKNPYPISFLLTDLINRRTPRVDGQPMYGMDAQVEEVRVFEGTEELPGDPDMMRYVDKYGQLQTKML
Experiment [2] deals with T1, MAD1 JCV VLPs (virus-like particles of …). The experiment in a line: Biacore; Fab.
The target in a further experiment is Type 3 wt. Kind of experiment: Biacore; mAb; printed ≤. For orientation: In SPR one partner is held on a chip, and binding of the other changes the refractive index at the surface.
Experiment [3] deals with T1, MAD1 JCV VLPs (virus-like particles of …). The experiment in a line: Biacore; mAb.

Substitutions are numbered along the chain they refer to. In names and notes the source's numbering stands.

B1: BIIB048 (antibody, V domains shown)
VH: QVQLVESGGGVVQPGRSLRLSCAASGFSFDRNYWIAWVRQAPGKGLEWVAVISAGGSGNTYYATWAKGRFTISRDNSKNTLYLQMNSLRAEDTAVYYCARFYSGGGYYAGYFTLWGQGTLVTVSS
VL: AIQLTQSPSSLSASVGDRVTITCQASQSIGNNLAWYQQKPGKAPKLLIYLASYLASGVPSRFSGSGSGTDFTLTISSLQPEDFATYYCQSSYYSPNDNAFGQGTKVEIK
Consider B1, for which the concentration giving a half-maximal response (EC50) with WT (2B), in the experiment with WT (1A), with WT (1B), with WT (2A) and with WT (3) was under 100 pM each time.

B2: humanized R399 H0L0 (antibody, V domains shown)
VH: B1 VH
VL: B1 VL
For the molecule B2, the EC50 in [1] is under 100 pM.

B3: V50A/N31A Fab (antibody, V domains shown)
VH: B1 VH with V51A
VL: B1 VL with I2F, T22N, N31A, D70Q, I75V
B3 gave a Kd in experiment [2] of 8900 pM.

B4: H0/L0 mAb (antibody, V domains shown)
VH: B1 VH
VL: B1 VL
As for B4, the equilibrium dissociation constant (Kd) in the experiment with Type 3 wt is under 10 pM.

B5: 5031G (antibody, V domains shown)
VH: B1 VH with V51G
VL: B1 VL with I2F, T22N, N31A, D70Q, I75V
On to B5, for which the EC50 in the experiment with WT (2B), with WT (1A), with WT (1B), with WT (2A) and with WT (3) was under 100 pM throughout.

B6: H0/L0 Fab (antibody, V domains shown)
VH: B1 VH
VL: B1 VL
In [2], B6 registered a Kd of 50000 pM.

B7: antibody 50/31-G (heavy chain H0 V50G, light chain L2-N31A, as told in paragraph 169) (antibody, V domains shown)
VH: B1 VH with V51G
VL: B1 VL with I2F, T22N, N31A, D70Q, I75V
For the molecule B7, in [1], the EC50 was under 100 pM.

B8: antibody 50/31-A (heavy chain H0 V50A, light chain L2 N31A) (antibody, V domains shown)
VH: B1 VH with V51A
VL: B1 VL with I2F, T22N, N31A, D70Q, I75V
As to B8, the Kd in [3] came to 900 pM.

Values taken from patent publication US20150050271A1 (published 2015).
